These results are taken from patent publication US20210206842A1 (NATIONAL RESEARCH COUNCIL OF CANADA, published 2021).

In assay [1] the target is T1, FC5DIE3IR recombinant protein.
T1 construct: Made in CHO-3E7 cells; also called FC5DIE31R; FC5DIE3R
Nature of the assay: phage ELISA, phage supernatant on coated FC5DIE3IR or PBS wells, anti-M13-HRP, TMB. The procedure: FIG. 25A Phages were rescued from individual colonies, selected from the fourth round of panning and grown overnight at 37° C. Wells of a Nunc microtiter plate were coated with FC5DIE3IR and FC5 proteins at 5 μg/ml in PBS. […] Binding was detected with TMB substrate and A450 was measured using an ELISA plate reader.
Additional rounds (up to 3) of panning were performed by coating the ELISA plate with the same proteins and using the amplified phages after each round of panning as described above. After four rounds of panning, 77 randomly picked colonies were grown and subjected to monoclonal phage ELISA screening as described previously (Arbabi-Ghahroudi et al., 2009) except that 5 μg/ml of FC5DIE3IR and FC5 VHH (the negative control) were coated onto a microtiter plate. All positive clones specifically binding to FC5DIE3IR were sequenced and unique VHH sequences were selected for sub-cloning, large-scale expression, and purification.
Background: An ELISA detects its analyte on a solid surface through an enzyme-linked reagent.

For assay [2], the target named is human Nav1.7 polypeptide (human, UniProt Q15858 1-1988). Nature of the assay: cell-based or functional assay.
Assay [3] has as its target T2, peptide #2a (20 aa) (human).
T2 construct: Custom-synthesized (Biomatik); also called pep #2a; P2a
T2 peptide: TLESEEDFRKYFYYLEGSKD
Put plainly: ELISA on coated P2a, mAb at the dilutions 1:1000, 1:5000 and 1:10000, Abs 450nm. The procedure:
(§1) The peptides were custom-synthesized (Biomatik) and tested for antibody binding by ELISA. […] The wells were blocked with 1% BSA in TBS-T for 30 min and then incubated with 1:1000 dilution of anti-hNaᵥ1.7 mAb at room temperature (RT) for one hr.

The target of assay [4] is T3, VHH FC5.
T3 construct: put together from its FR and CDR entries; also called FC5-VHH; FC5 control
T3 sequence (VHH, as listed by the source): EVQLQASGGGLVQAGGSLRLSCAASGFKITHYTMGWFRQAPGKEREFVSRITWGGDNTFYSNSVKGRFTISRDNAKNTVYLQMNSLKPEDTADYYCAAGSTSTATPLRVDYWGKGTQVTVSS
Nature of the assay: ELISA, hybridoma supernatant on coated purified FC5-VHH. The procedure:
(§2) Screening. Hybridoma supernatants were screened by ELISA to detect specific binders. To this end, 96-well half-area plates (Costar #3690) were coated with 25 μl of FC5DIE3IR or FC5-VHH or FC5-hFc-1X0 at 5 μg/ml in PBS and incubated overnight at 4° C. Microplates were washed 3 times with PBS, blocked with PBS-BSA 1%, and 25 μl of hybridoma supernatants were added and incubated at 37° C., 5% CO₂ for 2 hours. […] After 4 washes with PBS-Tween 20 0.05%, 25 μl of a 1 mg/ml pNPP substrate solution was added and further incubated for one hour at 37° C.

Assay [5] has as its target T4, peptide #2b (20 aa) (human).
T4 construct: Custom-synthesized (Biomatik); also called pep #2b; P2b
T4 peptide: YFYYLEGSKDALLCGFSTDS
Nature of the assay: ELISA on coated P2b, mAb at the dilutions 1:1000, 1:5000 and 1:10000, Abs 450nm. The protocol: as §1

Assay [6] concerns the target T3, VHH FC5. Nature of the assay: SPR, single cycle kinetics, Fc-captured mAb, FC5 flowed, 25 C. The protocol: HBS-EP running buffer used for SPR experiments. […] Test binding experiments of FC5 control and FC5DIE3IR involved flowing 1 μM concentrations of SEC-pure material over the mAb surface at a flow rate of 30 μl/min for 5 min. Surfaces could be regenerated using 10 mM glycine, pH 1.7, with a 120 sec pulse at 20 μl/min. All SPR experiments were evaluated with Biacore T200 Software v 3.0. […] Regeneration conditions were the same as above. Data were fit to a 1:1 binding model and analyzed using the Biacore T200 Software v3.0.

Assay [7] concerns the target T1, FC5DIE3IR recombinant protein. Put plainly: ELISA on coated FC5DIE3IR, serial dilutions of purified mAb, OD 405 nm; fit One site - Specific binding with Hill slope; apparent Kd in the unit of the concentration axis (nM), the table itself prints no unit. The protocol:
as §2
(§3) Evaluation of apparent affinity in ELISA. Purified antibodies were assessed for their binding activity by ELISA in a dose-dependent binding curve. Serial 1/3 dilutions of purified mAbs starting at 120 nM were applied onto wells and ELISA was performed as described above (screening section). The data were analyzed with GraphPad Prism software using one-site specific binding-with Hill slope non-linear regression curve fit model to determine Bₘₐₓ (maximum specific binding) and Kdₐₚₚ (concentration needed to achieve a half-maximum binding at equilibrium) for each mAb tested.

Assay [8] has the same target. Nature of the assay: ELISA on coated FC5DIE3IR, serial dilutions of purified mAb; fit One site - Specific binding with Hill slope. The procedure:
as §2, §3

Assay [9] concerns the target T5, peptide #40a (40 aa) (human).
T5 construct: Custom-synthesized (Biomatik); also called pep #40a; P40a
T5 peptide: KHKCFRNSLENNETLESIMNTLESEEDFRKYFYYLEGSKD
Put plainly: ELISA on coated peptide or FC5DIE3IR, mAb detected with HRP anti-mouse Fc, Abs 450nm. The protocol: as §1

Assay [10] has as its target T6, peptide #2 (30 aa) (human).
T6 construct: Custom-synthesized (Biomatik); also called pep #2; P2
T6 peptide: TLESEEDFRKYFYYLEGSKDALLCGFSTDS
The description is as above. The procedure: as §1

Assay [11] deals with T7, peptide #3 (30 aa) (human).
T7 construct: Custom-synthesized (Biomatik); also called pep #3; P3
T7 sequence (peptide, as listed by the source): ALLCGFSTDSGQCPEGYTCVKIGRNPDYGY
The assay is described as above. The protocol: as §1

Assay [12] deals with T1, FC5DIE3IR recombinant protein. Put plainly: SPR (Biacore T200), VHH flowed over immobilized FC5DIE3IR, steady state fit, 25 C. The text has this: (§4) Surface Plasmon Resonance for VHH antibodies. […] Monomeric VHH fractions were collected and protein concentration determined by measuring A280 measurement. Using a Biacore T200 instrument (GE Healthcare), approximately 500-1000 RUs of FC5DIE3IR, FC5 and an irrelevant VHH (2A3-H4) were immobilized on a CM5 Series S sensor chip (GE Healthcare) at pH 4.0 using standard amine coupling according to the manufacturer's instructions (GE Healthcare). […] Surfaces were regenerated by washing with a 120 s pulse of 10 mM glycine pH 1.5. Data were analyzed with Biacore T200 Software v 3.0 and affinities determined using steady state binding or a 1:1 binding model.
(§5) Surface Plasmon Resonance (SPR).
A general note: Surface plasmon resonance follows binding to a sensor surface in real time, without labels.

The target of assay [13] is T3, VHH FC5. Put plainly: phage ELISA of immune-library colonies, phage supernatant on coated FC5DIE3IR or FC5, anti-M13-HRP, TMB.
Assay [14] concerns the target T3, VHH FC5. The assay is described as above. This is another data set of the same source.
Assay [15] deals with T1, FC5DIE3IR recombinant protein. Put plainly: SPR (Biacore T200), single cycle kinetics, VHH flowed over immobilized FC5DIE3IR, 25 C.
Text: as §4, §5

B1: VHH DI-C (VHH)
VHH: QVKLEESGGGLVQPGESLRLSCVGSGFNFRIQAMAWFRQAPGKEREFVASISGSGATTDHADSVKGRFAISKDNARDTMYLQMNNLKPEDTAVYYCYAISQHVPPYHYWGQGTQVTVSS
notes: From the naive LAC-M library; soluble tagged monomer in protein ELISA and patch clamp; also called clone C; not shown: 6xHis and c-Myc tags on the soluble monomer
For B1, the binding result in assay [1] was “binds”. Also, the “reduction of the amplitude of the Nav1.7 currents at 1 µM” value (“reduction” for short) in assay [2] is 0.46%.

B2: VHH DI-A (VHH)
VHH: QVQLVESGGGLVQPGGSLRLSCAASGRTISSFTMGWFRQAPGAEREFVAAISRSGSSTVYAGSVKGRFTISRDNAKNTVYLQMNSLKPEDTAVYYCNAVITEPLYKTDDSYWGQGTQVTVSS
notes: From the naive LAC-M library; soluble tagged monomer in protein ELISA and patch clamp; also called clone A; not shown: 6xHis and c-Myc tags on the soluble monomer
Consider B2, for which the binding result in assay [1] is on record as “binds”. Moreover, the “reduction” value in assay [2] came to 2.73%.

B3: anti-hNav1.7 mAb 1B6 (antibody, V domains shown)
VH: QVQLKESGPGLVAPSQSLSITCTVSGFSLSRYNVHWVRQPPGKGLEWLGMIWGGGSTDYNSALKSRLSISKDNSKSQVFLKMNSLQTDDTAMYYCARNGANWDWFAYWGQGTLVTVSA
VL: not shown
notes: also called IB6; F236-1B6
Turning to B3, the binding result in [3] was “no binding (tested: 1:1000 dilution)”; in assay [5], “no binding (tested: 1:1000 dilution)”; in assay [6] it was “no binding”; in [9] it was “binds”; in assay [10], “binds”; in assay [11] it was “no binding”. Moreover, the “ELISA signal (OD 405 nm)” value in assay [4] was determined as 0.028 OD 405 nm. Besides, the Kd in [7] came out at 1.33 nM. Besides, in assay [8], the Bmax is 1.07 OD405 nm.

B4: VHH DI-B (VHH)
VHH: QVKLEESGGGLVPPGESLRLTCAATGQTASVYEMAWFRRAPEKEQVYVASINWRDGDTQYHNSVKGRFIISRDNAKNTVFLQMNSLTPEDTAIYYCAARKELAGYDYWGQGTQVTVSS
notes: From the naive LAC-M library; soluble tagged monomer in protein ELISA and patch clamp; also called clone B; not shown: 6xHis and c-Myc tags on the soluble monomer
B4: the binding result in assay [1] is “binds”. Also, the “reduction” value in assay [2] worked out at 1.73%.

B5: VHH DI-E (VHH)
VHH: QVKLEESGGGLVQPGGSLRLSCAASEFTFSSSWGHWVRQAPGKGLKWVSSINSGGEGTYYADSVKGRFTISRDNGKNTLYLEMNSLKSEDTAVYYCTSASGAWGQGIQVTVSS
notes: From the naive LAC-M library; also called clone E; not shown: 6xHis and c-Myc tags on the soluble monomer
On to B5, for which the binding result in [1] is given as “binds”.

B6: VHH DI-4 (VHH)
VHH: QVQLVESGGGLVQPGGSLRLSCAASGFTFSNYWMYWVRQAPGKGLERVSSIYISGGNTYYADSVKGRFTISRDNAKNTLYLQMNSLKSEDTAVYYCVKGDTFGGMDYWGKGTQVTVSS
notes: From the FC5DIE3IR llama immune library; soluble tagged monomer in SPR; not shown: cmyc and His6 tags at the C-terminus
For B6, the Kd in assay [12] was 2250 nM. In assay [13], the binding result is listed as “no binding”.

B7: anti-hNav1.7 mAb 1H5 (antibody, V domains shown)
VH: EVKLVESGGGLVKPGGSLKLSCAASGFTFRSYAMSWVRQTPEKGLEWVASISSGGSTYYPDSVKGRFTISRDNAGNILYLQMSSLRSEDTAMYYCARGYDGYYERIWYYAMDYWGQGTSVTVSS
VL: DIVMTQSQKFMSTSVGDRVTVSCKASQNVGTIVAWYQQKPGQSPKALIYSASYRFSGVPDRFTGSGSGTDFTLTISNVQSEDLAEYFCQQYNTYPLTFGSGTKLEIK
Consider B7, for which the “ELISA signal (OD 405 nm)” value in assay [4] turned out to be 0.042 OD 405 nm. Further, the binding result in assay [6] is given as “no binding”; in assay [9], “binds”; in assay [11], “binds”. Moreover, the Kd in assay [7] turned out to be 1.6 nM. Besides, the Bmax in [8] was 0.583 OD405 nm.

B8: VHH DI-H (VHH)
VHH: QVKLEESGGGLVQAGESLRLSCVNSGSTFSIYAMGWYRQAPGKQRELVAAISSVGRTNYADSVKGRFTISRAGAKNTVYLHMNNLKPEDTAVYSCITYYQNAMYFGQGTQVTVSS
notes: From the naive LAC-M library; soluble tagged monomer in protein ELISA and patch clamp; also called clone H; not shown: 6xHis and c-Myc tags on the soluble monomer
Regarding B8, the binding result in assay [1] was “binds”. In addition, the “reduction” value in [2] was 1.72%.

B9: VHH DI-28 (VHH)
VHH: QVQLVESGGGLVQAGGSLRLSCAASGRTFSSSGMGWFRQAPGKDRELVAGISWSGDSAYYANSVAGRFTISRDNINNTVYLQMNSLKPEDTAVYYCAARQGGRNYATSPREYDYWGQGTQVTVSS
notes: as for B6
As for B9, in assay [14], the binding result is recorded as “no binding”. Moreover, in assay [15], the Kd amounted to 4.44 nM, the koff is 0.00205 s⁻¹ and the kon was 461000 M⁻¹ s⁻¹.

What is called koff is the rate constant with which the complex falls apart. For orientation: kon means the second-order rate constant of association.
